Data published in US20070224196A1 (ELUSYS THERAPEUTICS, published 2007).

B1: E DI VH4/VL2 (antibody, V domains shown)
VH: DVQLQESGPGLVKPSQTLSLTCTVSGYSITSDYAWNWIRQFPGKGLEWIGYISYSGSTSYHPSLKSRISISRDTSKNQFFLQMNSVTTEDTATYYCTTIINYDKYDWYFDVWGQGTTVTVSS
VL: DIVLTQSPASLVVSVRQRATISCRASQSVRTSSYSYIHWYQQKPGQPPKLLIKYASSLESGVPARFSGSGSGTDFTLNISPVEEEDTATYYCQHSWEIPWTFGPGTTVEIK
notes: also called E DI V4/VL2
B2: E DI VH5/VL1 (antibody, V domains shown)
VH: DVQLQESGPGLVKPSQTLSLTCTVTGYSITSDYAWNWIRQFPGKGLEWMGYISYSGSTSYHPSLKSRISISRDTSKNQFFLQMNSVTTEDTATYYCTTIINYDKYDWYFDVWGQGTTVTVSS
VL: DIVLTQSPASLVVSVRQRATISCRASQSVRTSSYSYIHWYQQKPGQPPKLLIYYASSLESGVPARFSGSGSGTDFTLNISPVEEEDTATYYCQHSWEIPWTFGPGTKVEIK
notes: also called immunogenicity-reduced Ab VH5/VL1
B3: E DI VH3/VL1 12H10 (antibody, V domains shown)
VH: DVQLQESGPGLVKPSQTLSLTCTVSGYSMTSDYAWNWIRQFPGKGLEWIGYISYSGSTSYHPSLKSRISISRDTSKNQFFLQMNSVTTEDTATYYCTTIINYDKYDWYFDVWGQGTTVTVSS
VL: DIVLTQSPASLVVSVRQRATISCRASQSVRTSSYSYIHWYQQKPGQPPKLLIYYASSLESGVPARFSGSGSGTDFTLNISPVEEEDTATYYCQHSWEIPWTFGPGTKVEIK
notes: also called immunogenicity-reduced Ab VH3/VL1
B4: E DI VH1/VL2 (antibody, V domains shown)
VH: DVQLQESGPGLVKPSQTLSLTCTVSGYSMTSDYAWNWIRQFPGKGLEWIGYISYSGSTTYHPSVKSRITISRDTSKNQFFLQMNSVTTEDTATTYCTTIINYDKYDWYFDYWGQGTTVTVSS
VL: DIVLTQSPASLVVSVRQRATISCRASQSVRTSSYSYIHWYQQKPGQPPKLLIKYASSLESGVPARFSGSGSGTDFTLNISPVEEEDTATYYCQHSWEIPWTFGPGTTVEIK
B5: E DI VH3/VL2 15A12 (antibody, V domains shown)
VH: DVQLQESGPGLVKPSQTLSLTCTVSGYSMTSDYAWNWIRQFPGKGLEWIGYISYSGSTSYHPSLKSRISISRDTSKNQFFLQMNSVTTEDTATYYCTTIINYDKYDWYFDVWGQGTTVTVSS
VL: DIVLTQSPASLVVSVRQRATISCRASQSVRTSSYSYIHWYQQKPGQPPKLLIKYASSLESGVPARFSGSGSGTDFTLNISPVEEEDTATYYCQHSWEIPWTFGPGTTVEIK
notes: also called immunogenicity-reduced Ab VH3/VL2
B6: E DI VH2/VL1 44H1 (antibody, V domains shown)
VH: DVQLQESGPGLVKPSQTLSLTCTVSGYSMTSDYAWNWIRQFPGKGLEWIGYISYSGSTSYHPSVKSRITISRDTSKNQFFLQMNSVTTEDTATYYCTTIINYDKYDWYFDVWGQGTTVTVSS
VL: DIVLTQSPASLVVSVRQRATISCRASQSVRTSSYSYIHWYQQKPGQPPKLLIYYASSLESGVPARFSGSGSGTDFTLNISPVEEEDTATYYCQHSWEIPWTFGPGTKVEIK
notes: also called immunogenicity-reduced Ab VH2/VL1

What was measured:
[1] = biological target: T1, human erythrocyte complement receptor 1 (CR1) (human, UniProt P17927 42-2039); test: erythrocyte binding assay (FIGS. 10-13)
T1 construct: whole, on cells; also called C3b receptor; CD35

[2] = biological target: T1, human erythrocyte complement receptor 1 …; test: erythrocyte binding assay, antibody with RBCs in solution, A405 read-out

T1 sequence (P17927 42-2039): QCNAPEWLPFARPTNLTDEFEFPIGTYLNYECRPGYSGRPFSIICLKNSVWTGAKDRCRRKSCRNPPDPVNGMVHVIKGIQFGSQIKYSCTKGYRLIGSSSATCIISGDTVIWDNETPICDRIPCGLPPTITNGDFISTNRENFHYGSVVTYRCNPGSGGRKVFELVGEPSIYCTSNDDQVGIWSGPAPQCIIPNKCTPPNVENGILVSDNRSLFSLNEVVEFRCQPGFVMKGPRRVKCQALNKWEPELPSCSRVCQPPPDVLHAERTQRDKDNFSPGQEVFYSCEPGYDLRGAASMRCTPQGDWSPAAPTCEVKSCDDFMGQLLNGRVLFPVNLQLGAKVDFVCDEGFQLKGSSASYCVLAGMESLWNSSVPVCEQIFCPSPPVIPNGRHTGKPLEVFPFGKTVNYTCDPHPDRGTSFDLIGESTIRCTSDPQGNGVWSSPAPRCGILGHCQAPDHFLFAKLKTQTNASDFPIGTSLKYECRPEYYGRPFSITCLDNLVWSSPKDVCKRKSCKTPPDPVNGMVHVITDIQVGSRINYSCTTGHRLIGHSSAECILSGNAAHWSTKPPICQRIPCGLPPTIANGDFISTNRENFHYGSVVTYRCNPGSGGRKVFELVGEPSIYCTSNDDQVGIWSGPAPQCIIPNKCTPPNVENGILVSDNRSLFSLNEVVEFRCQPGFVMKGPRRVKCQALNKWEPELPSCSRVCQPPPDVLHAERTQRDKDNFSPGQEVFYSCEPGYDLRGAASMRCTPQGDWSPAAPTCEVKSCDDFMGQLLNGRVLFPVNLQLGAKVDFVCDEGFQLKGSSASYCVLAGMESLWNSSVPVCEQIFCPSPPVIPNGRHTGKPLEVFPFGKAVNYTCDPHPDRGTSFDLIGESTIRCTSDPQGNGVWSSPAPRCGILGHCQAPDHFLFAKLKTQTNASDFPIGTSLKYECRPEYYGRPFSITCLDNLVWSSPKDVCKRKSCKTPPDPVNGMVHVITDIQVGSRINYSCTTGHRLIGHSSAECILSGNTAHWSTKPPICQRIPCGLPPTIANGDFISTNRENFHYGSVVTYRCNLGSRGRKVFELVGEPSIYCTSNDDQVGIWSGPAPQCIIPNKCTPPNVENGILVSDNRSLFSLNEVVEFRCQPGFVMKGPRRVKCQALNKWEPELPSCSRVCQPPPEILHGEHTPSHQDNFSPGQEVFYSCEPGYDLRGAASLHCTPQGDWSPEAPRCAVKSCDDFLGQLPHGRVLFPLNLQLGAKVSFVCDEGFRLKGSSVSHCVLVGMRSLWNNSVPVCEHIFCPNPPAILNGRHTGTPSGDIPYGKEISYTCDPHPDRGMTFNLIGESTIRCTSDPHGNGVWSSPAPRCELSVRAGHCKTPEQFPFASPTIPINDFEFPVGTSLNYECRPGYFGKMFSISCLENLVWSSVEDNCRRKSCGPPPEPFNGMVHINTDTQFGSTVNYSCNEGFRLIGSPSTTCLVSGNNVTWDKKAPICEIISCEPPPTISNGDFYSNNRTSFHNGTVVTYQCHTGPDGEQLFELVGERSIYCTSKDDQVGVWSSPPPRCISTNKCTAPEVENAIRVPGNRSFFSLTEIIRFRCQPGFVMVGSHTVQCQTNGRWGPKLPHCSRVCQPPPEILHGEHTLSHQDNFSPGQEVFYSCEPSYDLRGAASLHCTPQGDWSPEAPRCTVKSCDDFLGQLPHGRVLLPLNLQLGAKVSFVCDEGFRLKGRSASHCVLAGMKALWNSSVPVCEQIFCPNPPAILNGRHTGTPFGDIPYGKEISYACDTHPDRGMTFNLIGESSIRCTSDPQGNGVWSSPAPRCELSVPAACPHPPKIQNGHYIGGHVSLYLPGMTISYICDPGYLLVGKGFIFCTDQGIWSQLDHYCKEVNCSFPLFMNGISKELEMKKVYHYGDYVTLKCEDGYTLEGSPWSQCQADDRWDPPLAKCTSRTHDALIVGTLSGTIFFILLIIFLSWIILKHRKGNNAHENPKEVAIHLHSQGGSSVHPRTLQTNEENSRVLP

| Binder | fold reduction of binding compared to the chimeric antibody [1] | ng of antibody at A405 0.4 [2] |
| --- | --- | --- |
| B1 | ~10 fold | 30 ng |
| B2 |  | 2 ng |
| B3 |  | 4 ng |
| B4 | ~10 fold | 9 ng |
| B5 | ~10 fold |  |
| B6 | ~2 fold | 12 ng |
